Assay results: patent US20060089302A1, “Hsp70-derived peptides and uses thereof in the diagnosis and treatment of autoimmune diseases” (priority 2002, published 2006)
Where “and” joins values, the source holds several entries; their conditions need not be identical. Equal values may be shown once.

Experiments:
[1] = system: peripheral blood mononuclear cells (PBMC) / T-cells; experiment: T-cell proliferation assay (3H-Thymidine incorporation, stimulation index); type: cell-based, human; conditions: for T-cell proliferative response, S.I., Mean ± SD: group mean
[2] = system: serum IgG anti-hsp60, anti-hsp70, anti-hsp90, anti-tetanus toxoid; experiment: Determination of auto-antibodies (antibody capture ELISA on antigen-coated plates); type: binding, human; conditions: for IgG antibodies to the antigen in serum, Mean ± SD: group mean
Description: All of the serum samples that were collected were stored in aliquotes at −20° C. and thawed before each assay. Total human IgG anti-hsp60, anti-hsp70, and anti-hsp90, as well as anti-tetanus toxoid proteins were detected by the antibody capture-type enzyme immunoassay ELISA [Maggio, M. T. (1981) Enzyme Immunoassay, CRC Press, Boca Raton, USA]. 96-well micro titer plates (Dynatech) were coated with the protein according to the antibody being tested. Serum samples were distributed at dilutions in the range of 1:50 to 1:70 into the pre-coated wells for the protein detection assay. Thus, any IgG anti-hsp60, anti-hsp70, anti-hsp90, or anti-tetanus toxoid present should be bound by the immobilized peptide or protein. After washing off unbound material, a mouse monoclonal anti-human IgG antibody conjugated to alkaline phosphatase (AP) was added to the wells. After an additional washing step to remove any unbound anti-enzyme reagent, the AP substrate p-nitrophenyl phosphate (pNPP) solution was added. The intensity of the color developed was measured using an Anthos htll ELISA reader at λ=405 nm. The amount of antibody detected was represented as Units of Optical Density at λ=405 nm. Patients and control subjects were assayed in the same experiment.
The InStat 2.01 computer program was used for the statistical analysis. The results obtained from the samples of healthy individuals were used to determine the cutoff for each assay, which was established as the mean plus two standard deviations (SDs). […] The results were presented as the percentage of positive from the total tested group.
Levels of IgG antibodies to hsp60, hsp70, and hsp90 were measured in the sera of 20 Type 1 Diabetes children (P1-P5, P7-P21; Table 3A) and two control groups, 10 normoglycemic children (Table 3B) and 15 healthy adult blood donors (Table 3C). The level of the antibodies was scored as positive when it was greater than the cut-off level (cut-off levels were established based on the mean value of antibody levels from the normoglycemic children plus two standard deviations).

[3] = system: peripheral blood mononuclear cells (PBMC) / T-cells; conditions: 25 newly diagnosed Type 1 Diabetes adult patients; Abulafia-Lapid et al. 1999; cited from earlier work

B1: hsp60: recombinant human hsp60 (StressGen, Canada), 60 kDa heat-shock protein (protein)
chain: AKDVKFGADARALMLQGVDLLADAVAVTMGPKGRTVIIEQSWGSPKVTKDGVTVAKSIDLKDKYKNIGAKLVQDVANNTNEEAGDGTTTATVLARSIAKEGFEKISKGANPVEIRRGVMLAVDAVIAELKKQSKPVTTPEEIAQVATISANGDKEIGNIISDAMKKVGRKGVITVKDGKTLNDELEIIEGMKFDRGYISPYFINTSKGQKCEFQDAYVLLSEKKISSIQSIVPALEIANAHRKPLVIIAEDVDGEALSTLVLNRLKVGLQVVAVKAPGFGDNRKNQLKDMAIATGGAVFGEEGLTLNLEDVQPHDLGKVGEVIVTKDDAMLLKGKGDKAQIEKRIQEIIEQLDVTTSEYEKEKLNERLAKLSDGVAVLKVGGTSDVEVNEKKDRVTDALNATRAAVEEGIVLGGGCALLRCIPALDSLTPANEDQKIGIEIIKRTLKIPAMTIAKNAGVEGSLIVEKIMQSSSEVGYDAMAGDFVNMVEKGIIDPTKVVRTALLDAAGVASLLTTAEVVVTEIPKEEKDPGMGAMGGMGGGMGGGMF
- T-cell proliferative response, Stimulation Index (S.I.) [1]: 1.25
- T-cell proliferative response, S.I., Mean ± SD ([1]; Healthy subjects): 1.79±0.74 and 1.7 ± 0.72
- T-cell response, in words ([1]; Type 1 Diabetes adult patients (Table 1D), tested after more than 12 weeks): not seen
- T-cell proliferative response, S.I., Mean ± SD ([1]; Type 1 Diabetes adult patients): 1.22 ± 0.36
- Responding subjects (S.I.≥2) ([1]; Type 1 Diabetes children): 85%
- T-cell proliferative response, S.I., Mean ± SD ([1]; Type 1 Diabetes children): 3.6±2.6
- T-cell proliferative response, S.I., Mean ± SD ([1]; Type 2 Diabetes patients): 1.7 ± 0.75
- Responding subjects (S.I.≥2) ([1]; healthy subjects / healthy blood donors): 39%
- IgG antibodies to the antigen in serum, Mean ± SD ([2]; Type 1 Diabetes children): 0.6 Units of Optical Density at λ=405 nm
- Positive (antibody level above cut-off) ([2]; Type 1 diabetes children (n=20), cut-off = mean of normoglycemic children plus two SD): 45%
- Positive (antibody level above cut-off) ([2]; Type 1 diabetes children (n=20), cut-off = mean of normoglycemic children plus two SD, listed as Hsp60): 45%
- Positive (antibody level above cut-off) ([2]; healthy adult blood donors (n=15)): 6%
- Positive (antibody level above cut-off) ([2]; healthy adult blood donors (n=15), listed as Hsp60): 6.6%
- IgG antibodies to the antigen in serum, Mean ± SD ([2]; healthy adult blood donors): 0.61 ± 0.12 Units of Optical Density at λ=405 nm
- Positive (antibody level above cut-off) ([2]; pediatric control serum donors / healthy children (n=10)): 10%
- Positive (antibody level above cut-off) ([2]; pediatric control serum donors / healthy children (n=10), listed as Hsp60): 10%
- IgG antibodies to the antigen in serum, Mean ± SD ([2]; pediatric control serum donors): 0.45 ± 0.11 Units of Optical Density at λ=405 nm
- Patients tested positive (proliferative response) [3]: 92%
